This passage reports bound fraction results from publication PMC12065904, “Mapping the interaction surface between CaVβ and actin and its role in calcium channel clearance” (Nature Communications, 2025).

The experiment has as its target rabbit skeletal muscle actin, polymerized in vitro (F-actin) (rabbit, UniProt P68135 1-377). Nature of the experiment: co-sedimentation; F-actin cosedimentation: CaVβ proteins incubated with polymerized actin in polymerization buffer (0.2 mM CaCl2, 50 mM KCl, 2 mM MgCl2, 1 mM ATP, 5 mM HEPES pH 8.0), 25 µM phalloidin; 150,000 × g, 20 min, 4 °C; densitometry of pellet over total; also at 30–150 mM NaCl and after 30 or 90 min of incubation. As to conditions: both partners purified.

B1: CaVβ2-core WT (core region of rat CaVβ2, residues 23–422) (domain or fragment)
chain: not shown
notes: rat CaVβ2 (voltage-gated calcium channel β2 subunit), UniProtKB Q8VGC3-2, core region (SH3 and GK domains), residues 23–422; Expressed from pRSETB
Regarding B1, the bound fraction turned out to be 0.24 ± 0.03 fraction.
